Results published in article PMC7735993, “Role of Arabidopsis Splicing factor SF1 in Temperature-Responsive Alternative Splicing of FLM pre-mRNA”.

B1: FLM BP1 (ssRNA)
RNA: UUCUAAUGCAUUUUUGUUUUAUCU
B2: FLM BP2 (ssRNA)
RNA: UUCUAAUAUUCUUCUGGAUGCGGUUUUUGGUGUUAU

Target: His-AtSF1(1-562) (Arabidopsis thaliana, UniProt Q9LU44 1-562)
Test: EMSA; 23 C; unlabeled self competitor (10-200x) reduces shift; LightShift Chemiluminescent RNA EMSA kit, 23 C, 30 min, 8% native PAGE; buffer, salt and pH not stated
Settings: protein: recombinant; tags: His; label: 3' biotin

Sequence of His-AtSF1(1-562) (Q9LU44 1-562): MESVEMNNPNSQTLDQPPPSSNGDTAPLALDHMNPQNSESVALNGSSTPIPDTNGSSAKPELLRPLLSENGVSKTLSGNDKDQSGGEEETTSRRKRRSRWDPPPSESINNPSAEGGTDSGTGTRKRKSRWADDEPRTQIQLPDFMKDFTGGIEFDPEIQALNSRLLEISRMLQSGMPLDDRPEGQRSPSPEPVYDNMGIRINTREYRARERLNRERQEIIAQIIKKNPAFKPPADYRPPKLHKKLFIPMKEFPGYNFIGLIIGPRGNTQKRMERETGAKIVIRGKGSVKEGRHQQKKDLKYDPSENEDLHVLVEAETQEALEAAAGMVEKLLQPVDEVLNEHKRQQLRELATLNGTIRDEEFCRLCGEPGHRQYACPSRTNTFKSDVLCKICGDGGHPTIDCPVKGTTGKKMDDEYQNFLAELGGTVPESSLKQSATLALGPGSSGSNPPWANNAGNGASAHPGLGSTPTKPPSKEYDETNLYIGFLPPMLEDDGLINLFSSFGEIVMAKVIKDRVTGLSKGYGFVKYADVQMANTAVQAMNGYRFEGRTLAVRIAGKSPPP

Row | Binder | binding result
1 | B1 | binds
2 | B2 | binds
